{"source": "paper PMC3416860", "about": "“TC10 Is Regulated by Caveolin in 3T3-L1 Adipocytes” (PLoS ONE, 2012)", "molecules": {"B1": {"name": "Caveolin 1, endogenous in 3T3-L1 adipocytes (natural protein, mouse (endogenous in 3T3-L1), UniProt P49817 1-178, looked up)", "chain": "MSGGKYVDSEGHLYTVPIREQGNIYKPNNKAMADEVTEKQVYDAHTKEIDLVNRDPKHLNDDVVKIDFEDVIAEPEGTHSFDGIWKASFTTFTVTKYWFYRLLSTIFGIPMALIWGIYFAILSFLHIWAVVPCIKSFLIEIQCISRVYSIYVHTFCDPLFEAIGKIFSNIRISTQKEI", "notes": "Caveolin 1, endogenous, detected with anti-Caveolin antibodies; source: endogenous, 3T3-L1 adipocyte lysate"}, "B2": {"name": "MBP-Caveolin 1(1-99) (domain or fragment, UniProt Q03135 1-99, looked up)", "chain": "MSGGKYVDSEGHLYTVPIREQGNIYKPNNKAMADELSEKQVYDAHTKEIDLVNRDPKHLNDDVVKIDFEDVIAEPEGTHSFDGIWKASFTTFTVTKYWF", "notes": "Caveolin 1, the first 99 amino acids; The vector may add further tags and a TEV site; source: E. coli Rosetta-gami (DE3), purified (amylose resin)"}}, "key": {"[1]": {"molecular_target": "T1, GST-TC10 (Homo sapiens, UniProt P17081)", "T1 construct": "gene RHOQ; GST fusion (GST kept), expressed in E. coli Rosetta-gami (DE3), glutathione-agarose purified; plasmid from I. Macara", "T1 sequence (P17081 whole entry, the tested form may be a part)": "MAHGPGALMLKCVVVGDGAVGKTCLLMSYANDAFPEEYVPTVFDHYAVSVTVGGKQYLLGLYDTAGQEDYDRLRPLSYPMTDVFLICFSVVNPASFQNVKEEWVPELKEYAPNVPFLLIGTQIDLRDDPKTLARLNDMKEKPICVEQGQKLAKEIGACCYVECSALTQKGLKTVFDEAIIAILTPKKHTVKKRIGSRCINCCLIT", "test": "radioligand binding to GST-fusion on glutathione-agarose", "settings": "10 mM MgCl2, pH 7.5, room temperature, labelled compound"}, "[2]": {"molecular_target": "myc-Caveolin 1 wild-type (pKMyc-Caveolin 1) (UniProt Q03135)", "test": "co-IP; COS-1 cells co-transfected with myc-Caveolin 1 and HA-TC10 plasmids; lysed in HNTG buffer (50 mM HEPES pH 7.4, 150 mM NaCl, 10% glycerol, 1% Triton X-100); immunoprecipitated with anti-myc antibodies and Protein A/G beads, blotted for HA"}, "[3]": {"molecular_target": "T2, GST-TC10 (human, UniProt P17081 1-205)", "T2 construct": "TC10 (RhoQ); Expression plasmid obtained from Dr. Ian Macara; Used as purified (with endogenous GDP) or preincubated with GDP or a nonhydrolyzable GTP analog; also called TC10-GDP; source: E. coli Rosetta-gami (DE3), purified (glutathione-agarose)", "T2 sequence (P17081 whole entry)": "as the sequence (P17081 whole entry, the tested form may be a part) above", "test": "pull-down; GST-TC10 on glutathione-agarose beads, preincubated with nucleotides as indicated (GDP or a nonhydrolyzable GTP analog), used to precipitate proteins from a 3T3-L1 adipocyte lysate; blot with anti-Caveolin antibodies", "settings": "one partner purified"}, "[4]": {"molecular_target": "T2, GST-TC10", "test": "pull-down; purified MBP-Caveolin 1(1-99) and GST-TC10 incubated with GDP overnight at 4 C; glutathione agarose 1 h, washed, eluted in SDS sample buffer; blots with anti-GST or anti-MBP", "settings": "both partners purified"}}}
{"molecule": "Nc1nc2c(ncn2[C@@H]2O[C@H](COP(=O)(O)OP(=O)(O)OP(O)(O)=S)[C@@H](O)[C@H]2O)c(=O)[nH]1", "note": "[GTPγS]", "values": [{"measurement": "radioligand binding to GST-fusion on glutathione-agarose", "setting": "[1]", "result": "incubated radiolabeled GTPγS with recombinant GST, GST-TC10 or GST-Cdc42"}]}
{"molecule": "HA-TC10 T31N (pKH3-TC10 T31N), dominant-interfering mutant (natural protein)", "values": [{"measurement": "fold interaction against the constitutively active allele (Q75L)", "setting": "[2]", "result": "> 10", "unit": "fold"}]}
{"molecule": "HA-TC10 Y37A/Y46A (pKH3-TC10 Y37A/Y46A) (natural protein)", "values": [{"measurement": "percent decrease of co-immunoprecipitation against wild-type TC10", "setting": "[2]", "result": "> 75", "unit": "%"}]}
{"molecule": "B1", "values": [{"measurement": "fold enhancement of the interaction after GDP binding", "setting": "[3]", "result": "~2", "unit": "fold"}]}
{"molecule": "B2", "values": [{"measurement": "fold precipitated with TC10-GDP against GTP analog bound TC10", "setting": "[4]", "result": "> 4", "unit": "fold"}]}
